Stoichiometry N, binding result and Kd data for four molecules are collected here from paper PMC2790891.

Data set [1] has as its target SsoDpo1 exonuclease mutant (D231A/D318A) (Sulfolobus solfataricus P2) (UniProt P26811). The data set can be described thus: native gel or EMSA.
For data set [2] the target is unchanged. As to the kind of experiment: ITC. Background: In ITC the heat of successive injections is recorded.
In data set [3] the target is T1, SsoDpo1 exo- (B-family DNA polymerase 1) (Sulfolobus solfataricus, UniProt P26811 1-882, D231A;D318A).
T1 sequence: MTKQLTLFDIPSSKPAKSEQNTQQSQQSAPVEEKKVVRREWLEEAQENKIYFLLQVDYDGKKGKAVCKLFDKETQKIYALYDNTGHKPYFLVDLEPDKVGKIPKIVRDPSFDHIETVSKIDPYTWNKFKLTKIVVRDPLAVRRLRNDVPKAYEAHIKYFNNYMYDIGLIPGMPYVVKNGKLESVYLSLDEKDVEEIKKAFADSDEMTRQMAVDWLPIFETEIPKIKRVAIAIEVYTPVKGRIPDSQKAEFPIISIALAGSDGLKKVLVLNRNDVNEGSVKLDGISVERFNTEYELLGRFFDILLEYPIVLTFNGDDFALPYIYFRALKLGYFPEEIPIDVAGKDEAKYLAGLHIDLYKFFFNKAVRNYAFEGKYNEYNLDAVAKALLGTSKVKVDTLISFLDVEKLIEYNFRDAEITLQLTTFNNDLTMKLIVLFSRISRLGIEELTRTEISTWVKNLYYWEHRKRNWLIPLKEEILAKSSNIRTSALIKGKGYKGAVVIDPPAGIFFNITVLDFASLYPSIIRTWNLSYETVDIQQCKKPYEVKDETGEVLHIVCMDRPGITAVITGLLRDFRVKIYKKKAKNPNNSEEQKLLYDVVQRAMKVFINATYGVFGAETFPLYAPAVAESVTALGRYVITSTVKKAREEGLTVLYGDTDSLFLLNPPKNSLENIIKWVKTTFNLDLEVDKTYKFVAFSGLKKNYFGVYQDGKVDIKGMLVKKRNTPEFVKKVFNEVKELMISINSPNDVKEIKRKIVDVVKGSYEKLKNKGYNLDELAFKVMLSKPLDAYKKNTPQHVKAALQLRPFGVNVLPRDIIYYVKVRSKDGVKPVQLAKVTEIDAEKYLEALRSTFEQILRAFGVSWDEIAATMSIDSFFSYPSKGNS
The data set can be described thus: fluorescence anisotropy.

Data set [4] deals with T1, SsoDpo1 exo- (B-family DNA polymerase 1). The data set can be described thus: EMSA. (In general: In EMSA bound probe runs differently from free probe, usually more slowly.)
Data set [5] has the same target. The data set can be described thus: ITC.

On to “SsoDpo1 exonuclease mutant (D231A/D318A) (from UniProt P26811 1-882) (enzyme)”, for which the stoichiometry N (as a rule, a count of units in the complex or per binding partner) in data set [1] was determined as 3.5; in data set [2] it was 2.84.

B1: Cy5 p/tDNA hairpin (structured_DNA)
DNA: TTTTTTTTTTTTTTTCGAATGGCGCTTTGCCTGGTTTTTACCAGGCAAAGCGCCATTCG
With B1, the binding result in data set [3] is listed as “binds”.

B2: long p/tDNA 28/66-mer (dsDNA)
DNA 1: CACCTCTCCCTACGCTTCCCACCCACCCCGACCGGCATCTGCTATGGTACGCTGAGCGAGAGTAGC
DNA 2: GCTACTCTCGCTCAGCGTACCATAGCAG
Regarding B2, the affinity in data set [4], expressed as Kd, was 0.1 ± 0.01 nM.

B3: short p/tDNA 21/31-mer (dsDNA)
DNA 1: GCTGTGCTCTCGCCGCGTGCC
DNA 2: TATCTTCTATGGCACGCGGCGAGAGCACAGC
Turning to B3, the dissociation constant Kd (as a rule, the concentration at which binding is half-saturated) in data set [5] was 1200 ± 100 nM.
